Values quoted from earlier work as cited in CN114306299A, “贝利司他在制备缓解和/或治疗缺血性脑卒中药物中的应用” (Institute of Materia Medica of CAMS and PUMC, priority 2020, dated 2022).

Tested on: stroke (脑卒中)
Settings: clinical studies, fraction of patients

B1: t-PA: 美国FDA唯一批准用于治疗脑卒中的药物 (protein, UniProt P00750 36-562, looked up)
Tissue-type plasminogen …: SYQVICRDEKTQMIYQQHQSWLRPVLRSNRVEYCWCNSGRAQCHSVPVKSCSEPRCFNGGTCQQALYFSDFVCQCPEGFAGKCCEIDTRATCYEDQGISYRGTWSTAESGAECTNWNSSALAQKPYSGRRPDAIRLGLGNHNYCRNPDRDSKPWCYVFKAGKYSSEFCSTPACSEGNSDCYFGNGSAYRGTHSLTESGASCLPWNSMILIGKVYTAQNPSAQALGLGKHNYCRNPDGDAKPWCHVLKNRRLTWEYCDVPSCSTCGLRQYSQPQFRIKGGLFADIASHPWQAAIFAKHRRSPGERFLCGGILISSCWILSAAHCFQERFPPHHLTVILGRTYRVVPGEEEQKFEVEKYIVHKEFDDDTYDNDIALLQLKSDSSRCAQESSVVRTVCLPPADLQLPDWTECELSGYGKHEALSPFYSERLKEAHVRLYPSSRCTSQHLLNRTVTDNMLCAGDTRSGGPQANLHDACQGDSGGPLVCLNDGRMTLVGIISWGLGCGQKDVPGVYTKVTNYLDWIRDNMRP
patients in whom treatment is ineffective or condition worsens (after t-PA treatment): 三分之二 | patients in whom t-PA is effective: 三分之一
